Our source for the Kd values is article PMC2756776 (Arteriosclerosis, thrombosis, and vascular biology, 2009).

This assay has as its target Factor XI (FXI), plasma-derived (human). Put plainly: ELISA. Background: An ELISA detects its analyte on a solid surface through an enzyme-linked reagent.

B1: Soluble recombinant ApoER2’ (a splice variant of ApoER2 lacking LDL-binding domains 4, 5 and 6) (receptor)
chain: not shown
For orientation: Kd means the concentration at which binding is half-saturated. Lower therefore signals higher affinity. B1 came in with a Kd of 61 nM. This counts as double-digit nanomolar.
